B1: Clone 10 anti-PD-1 antibody (antibody, V domains shown)
VH: DVQLQESGPGLVKPSQSLSLTCTVTGYSITSDYAWNWIRQFPGNKLEWMGYINYSGSTSYNPSLKSRISITRDTSKNQFFLQLNSVTTEDTATYYCARWIGSSAWYFDVWGAGTTVTV
VL: DVLMTQTPLSLPVSLGDQASISCRSGQNIVHSNGNTYLEWYLQKPGQSPKLLIYKVSNRFFGVPDRISGSGSGTDFTLKISRVEAEDLGVYFCFQGSHVPFTFGSGTKLEIK
B2: Clone 2 anti-PD-1 antibody (antibody, V domains shown)
VH: QVQLQQPGAELVKPGASVKLSCKASGYTFTTYYLYWVRQRPGQGLEWIGGINPSNGGTNFNEKFKSKATLTVDKSSSTAYMQLNSLTSEDSAVYYCTRRDYRYDRGFDYWGQGTSVTV
VL: DIVLTQSPASLAVSLGQRATISCRASKSVSTSGFNYIHWYQQKPGQPPKLLIYLASNLESGVPARFSGSGSGTDFTLNIHPVEDEDAATYYCQHSRELPLTFGAGTKLEIK
B3: Clone 19 anti-PD-1 antibody (antibody, V domains shown)
VH: QVQLQQSGAELVKPGASVKMSCKAFGYTFTTYPIEWMKQNHGKSLEWIGNFHPYNDDTKYNEKFKGKAKLTVEKSSTTVYLELSRLTSDDSAVYYCARENYGSHGGFVYWGQGTLVTV
VL: ENVLTQSPAIMSASPGEKVTMTCRASSSVISSYLHWYQQKSGASPKLWIYSTSNLASGVPDRFSGSGSGTSYSLTISSVEAEDAATYYCQQYNGYPLTFGAGTKLEIK

Each binder was assayed against Monomeric soluble human PD-1 (human, UniProt Q15116 25-170) (assay: SPR).
Sequence of Monomeric soluble human PD-1 (Q15116 25-170): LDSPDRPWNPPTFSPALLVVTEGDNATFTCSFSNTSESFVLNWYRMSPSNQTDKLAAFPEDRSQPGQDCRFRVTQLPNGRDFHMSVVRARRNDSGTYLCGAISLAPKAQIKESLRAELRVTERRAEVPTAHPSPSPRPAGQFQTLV

**Q.** Which koff does the source give for B1 here?
**A.** ~0.4 s⁻¹

**Q.** Which koff does the source give for B2 here?
**A.** ~0.0027 s⁻¹

**Q.** B3 was tested. Which koff did it give?
**A.** ~0.0013 s⁻¹

Source: US20110171215A1 (published 2011)
